In publication PMC2738423:

What was measured:
Assay in all cases: SPR
[1] = target: AglyFc-mut-MBP (aglycosylated, N297A; mouse IgG1 hinge-Fc TT-HN mutant linked via Gly-Ser-Gly-Gly to MBP1–9[4Y]) (mouse | not stated)
[2] = target: Fc-WT-MBP (glycosylated; wild type mouse IgG1 hinge-Fc linked via Gly-Ser-Gly-Gly to MBP1–9[4Y]) (mouse | not stated)
[3] = target: wild type (WT) mouse hinge-Fc region (mouse IgG1 derived), no MBP epitope attached (mouse)
[4] = target: AglyFc-WT-MBP (aglycosylated, N297A; mouse IgG1 hinge-Fc linked via Gly-Ser-Gly-Gly to MBP1–9[4Y]) (mouse | not stated)

- KD of the higher affinity interaction site [1]: 19.8 nM
- KD of the higher affinity interaction site [2]: 212 nM
- KD of the higher affinity interaction site [3]: 188 nM
- KD of the higher affinity interaction site [4]: 170 nM
Substance: Recombinant mouse FcRn (from UniProt Q61559 22-365; P01887 21-119) (receptor)
